The target in test [1] is BoNT/A binding domain (rBoNT/A-HC) (Clostridium botulinum).
Test [2] has the same target. This is another data set of the same source.

Values joined by “and” are separate entries in the source; they are usually repeats but may differ in a detail not shown here. Identical values can stand only once. Like-named read-outs stand apart in the source and are kept apart here.

Chain of BoNT/A binding domain (rBoNT/A-HC) (Clostridium botulinum) (P0DPI1 873-1296): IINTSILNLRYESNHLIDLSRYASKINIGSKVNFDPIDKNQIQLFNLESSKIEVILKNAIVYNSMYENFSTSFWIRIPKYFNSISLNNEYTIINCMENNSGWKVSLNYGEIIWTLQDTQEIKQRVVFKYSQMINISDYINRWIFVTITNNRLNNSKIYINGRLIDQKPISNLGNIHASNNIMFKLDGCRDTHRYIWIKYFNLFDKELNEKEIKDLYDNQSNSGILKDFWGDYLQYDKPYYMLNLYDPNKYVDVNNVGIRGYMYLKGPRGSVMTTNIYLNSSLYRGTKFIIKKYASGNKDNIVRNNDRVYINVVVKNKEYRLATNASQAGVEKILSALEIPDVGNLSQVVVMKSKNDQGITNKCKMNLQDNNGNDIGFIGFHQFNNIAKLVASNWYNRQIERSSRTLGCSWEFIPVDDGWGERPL

On to “FGFR1 (transfected, pReceiver-M02/FGFR1) (receptor)”, for which, in test [1], the RUMax was 480 RU and 470 RU and 330 RU.
FGFR3 and SV2C co-transfected: in test [2], the Percentage increase was 27% and 13%; the RUMax is 165 RU and 90 RU.
As to “FGFR2 (transfected, pReceiver-M02/FGFR2) (receptor)”, in test [1], the Percentage increase was 46% and 24% and 40%; the RUMax was 510 RU and 460 RU and 450 RU.
As for “SV2C (transfected, pReceiver-M02/SV2C) (receptor)”, in test [2], the Percentage increase is 8% and 6%; the RUMax was 140 RU and 85 RU.
For the substance “FGFR3 (transfected, pReceiver-M02/FGFR3) (receptor)”, in test [1], the Percentage increase was 46% and 38% and 40%; the RUMax was 510 RU and 450 RU. Besides, in test [2], the Percentage increase is 73%; the RUMax was 225 RU and 110 RU.

These data come from patent US20090263836A1.
